Results on 2 molecules are retold here after patent US20140154245A1 (L AND K BIOMED, published 2014).

The target of test [1] is T1, human EMAPII (endothelial monocyte activating polypeptide II) antigen (human, UniProt Q12904 1-312, limits assumed).
T1 construct: also called EMAPII antigen; p43
T1 sequence: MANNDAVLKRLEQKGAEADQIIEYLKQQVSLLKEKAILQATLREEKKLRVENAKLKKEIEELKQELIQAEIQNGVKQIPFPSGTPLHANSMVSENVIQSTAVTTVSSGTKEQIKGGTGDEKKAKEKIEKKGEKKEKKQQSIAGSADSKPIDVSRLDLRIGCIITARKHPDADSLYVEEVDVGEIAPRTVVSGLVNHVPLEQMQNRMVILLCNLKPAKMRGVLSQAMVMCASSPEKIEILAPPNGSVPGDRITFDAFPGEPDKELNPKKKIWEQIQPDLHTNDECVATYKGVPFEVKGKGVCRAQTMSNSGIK
Kind of test: ELISA, EMAPII antigen coated on the plate, antibody titrated. How it is done: (§1) Wells of a 96 well plate were coated with 100 μl of different concentrations of EMAPII antigen (10 μg/ml, 5 μg/ml, 2.5 μg/ml, 1 μg/ml, 0.5 μg/ml, 0.2 μg/ml) and were incubated at 37° C. for 2 hours. The coated antigens were blocked using BSA and washed with washing buffer. Dilutions of the parental murine anti-EMAPII antibody (starting at 1 μg/ml, two-fold serial dilution) were added to the antigens and incubated for 2 hours. The mixture was washed three times and anti-IgG-HRP antibody was added to the mixture and incubated for 1 hour. The mixture was washed with washing buffer three times. The substrate was added to the mixture and maintained for 30 minutes. After developing, stop solution was added and detected absorbance at the wavelength of 450 nm (FIG. 12). Bound antibody was detected with anti-mouse IgG-HRP conjugate. A concentration of 2.5 μg/ml antigen was selected for testing the chimeric clones.
(§2) The ability of mouse/human chimeric antibody BAP015_{—}1 to bind to the EMAPII antigen was determined by using the ELISA protocol provided by StemScience and the optimized conditions determined as described above. Bound chimeric antibody was detected with anti-human-IgG HRP conjugate (FIG. 13). All 3 clones tested bind to EMAPII. The binding curves of all 3 clones are very similar to each other and to the murine antibody.
For orientation: ELISA stands for enzyme-linked immunosorbent assay.

The target of test [2] is T1, human EMAPII (endothelial monocyte …). Kind of test: ELISA, EMAPII antigen coated on the plate, antibody titrated (3 clones). How it is done: as §1, §2

B1: mouse anti-EMAPII monoclonal antibody (antibody, V domains shown)
VH: QVQLQQSGAELARPGASVKMSCKASGYTFTSYTMHWVKQRPGQGLEWIGYINPSSGFTNYNQKFKDKATLTADKSSSTAYMQLSSLTSEDSAVYYCASRFAYWGQG
VL: DIVMTQSHKFMSTSVGDRVSITCKASQDVSTAVAWYQQKPGQSPKLLIFSASYRYTGVPDRFTGSGSGTDFTFTISSVQAEDLAVYYCQQHYSTPYTFGQG
notes: Mouse IgG1 with kappa light chain, from a hybridoma; also called murine EMAPII mAb; parental murine anti-EMAPII antibody
The term EC50 denotes the concentration giving half of the maximal effect. Low readings indicate an effect from little substance, high ones a need for much substance. Consider B1, for which the EC50 in test [1] stood at 0.0209 µg/mL.

B2: mouse/human chimeric antibody BAP015-1 (antibody, V domains shown)
VH: QVQLQQSGAELARPGASVKMSCKASGYTFTSYTMHWVKQRPGQGLEWIGYINPSSGFTNYNQKFKDKATLTADKSSSTAYMQLSSLTSEDSAVYYCASRFAYWGQG
VL: DIVMTQSHKFMSTSVGDRVSITCKASQDVSTAVAWYQQKPGQSPKLLIFSASYRYTGVPDRFTGSGSGTDFTFTISSVQAEDLAVYYCQQHYSTPYTFGQG
notes: VL is fused to a human kappa constant region and VH to a human IgG1 constant region (full-length IgG1, from CHO-S supernatant); Three plasmid clones of the same construct were tested; they are treated as one molecule; also called chimeric anti-EMAPII antibody; chimeric clone BAP015-1
Consider B2, for which the half-maximal effective concentration (EC50) in test [2] was in the range of 0.0215 to 0.0302 µg/mL.
